Patent publication US20040146507A1
pKd: −log10 of the molar value.

Key:
[1] = molecular target: rhesus CD18 (rhesus) (UniProt H9Z8N5); assay: saturation binding, rhesus leukocytes, donor 2; Kd(app)
[2] = molecular target: rhesus CD18 (rhesus) (UniProt H9Z8N5); assay: saturation binding, rhesus leukocytes, donor 1; Kd(app)
[3] = molecular target: human CD18 (human) (UniProt P05107); assay: cell-based or functional assay
[4] = molecular target: rhesus CD18 (rhesus) (UniProt H9Z8N5); assay: cell-based or functional assay

Sequence of human CD18 (human) (P05107 23-769): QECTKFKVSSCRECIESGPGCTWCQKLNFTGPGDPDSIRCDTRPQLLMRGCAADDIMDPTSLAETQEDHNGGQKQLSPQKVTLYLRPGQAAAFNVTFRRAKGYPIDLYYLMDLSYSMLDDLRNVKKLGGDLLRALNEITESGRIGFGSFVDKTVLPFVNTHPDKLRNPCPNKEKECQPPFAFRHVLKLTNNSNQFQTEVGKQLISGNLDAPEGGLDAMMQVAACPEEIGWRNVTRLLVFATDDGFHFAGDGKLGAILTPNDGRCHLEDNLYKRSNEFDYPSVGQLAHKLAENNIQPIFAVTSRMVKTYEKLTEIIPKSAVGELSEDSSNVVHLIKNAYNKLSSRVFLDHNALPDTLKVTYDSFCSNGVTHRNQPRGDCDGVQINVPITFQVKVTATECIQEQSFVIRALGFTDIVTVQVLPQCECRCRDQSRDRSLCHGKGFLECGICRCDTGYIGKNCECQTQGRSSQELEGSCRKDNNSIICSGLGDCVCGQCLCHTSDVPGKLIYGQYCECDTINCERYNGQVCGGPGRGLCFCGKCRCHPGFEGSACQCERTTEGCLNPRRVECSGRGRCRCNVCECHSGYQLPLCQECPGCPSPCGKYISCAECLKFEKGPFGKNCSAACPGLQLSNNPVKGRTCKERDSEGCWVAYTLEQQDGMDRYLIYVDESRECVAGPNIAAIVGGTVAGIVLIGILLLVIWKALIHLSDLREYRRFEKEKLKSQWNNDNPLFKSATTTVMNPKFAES

pKd [1]: 8.35
pKd [2]: 8.41
IC50, blocking of cell adhesion, Rh/HuCD11a: HuK [3]: 1.4 nM
IC50, blocking of cell adhesion, RhLy: HuICAM [4]: 1.2 nM
IC50, blocking of cell adhesion, RhLy: HuK [4]: 1.6 nM
Substance: murine anti-human CD18 antibody MHM23
